Measurements taken from PMC10897342, “An octameric PqiC toroid stabilises the outer-membrane interaction of the PqiABC transport system” (EMBO Reports, 2024).

T1: PqiB (residues 1–546) with a C-terminal hexa-histidine tag, of the PqiAB construct (E. coli, UniProt P43671 1-546)
T1 construct: PqiB, periplasm-spanning MCE family protein of E. coli, residues 1–546; Always present together with PqiA in the experiments; also called hexameric PqiB; source: E. coli C43 (DE3), co-expressed with PqiA, purified (Ni-NTA, SEC) in DDM, reconstituted into DMPC proteoliposomes; not shown: His6, C-terminal, kept
T1 sequence (looked up): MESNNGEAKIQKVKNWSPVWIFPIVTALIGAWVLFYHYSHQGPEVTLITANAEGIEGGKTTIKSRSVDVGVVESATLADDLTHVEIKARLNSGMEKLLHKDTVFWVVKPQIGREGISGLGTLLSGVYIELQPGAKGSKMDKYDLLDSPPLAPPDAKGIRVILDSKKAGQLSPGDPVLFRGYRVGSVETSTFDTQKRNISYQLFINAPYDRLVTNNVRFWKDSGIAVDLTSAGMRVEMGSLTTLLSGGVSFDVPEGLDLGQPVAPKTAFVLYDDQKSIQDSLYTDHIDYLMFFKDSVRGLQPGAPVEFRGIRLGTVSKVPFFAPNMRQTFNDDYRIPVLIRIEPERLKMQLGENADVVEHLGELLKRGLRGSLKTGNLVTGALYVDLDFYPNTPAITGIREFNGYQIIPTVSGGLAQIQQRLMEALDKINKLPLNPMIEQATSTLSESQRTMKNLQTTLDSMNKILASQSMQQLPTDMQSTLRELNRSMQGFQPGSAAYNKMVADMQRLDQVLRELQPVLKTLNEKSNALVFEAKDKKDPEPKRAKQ

T2: PqiAB subcomplex (PqiA residues 1–417 and PqiB residues 1–546, C-terminal hexa-histidine tag) (E. coli, UniProt P0AFL9 1-417; P43671 1-546)
T2 construct: PqiA, integral inner membrane protein of E. coli, residues 1–417; PqiB, periplasm-spanning MCE family protein of E. coli, residues 1–546; also called purified PqiAB subcomplex; PqiAB-proteoliposomes; copies: + 6
T2 sequence (looked up) 1: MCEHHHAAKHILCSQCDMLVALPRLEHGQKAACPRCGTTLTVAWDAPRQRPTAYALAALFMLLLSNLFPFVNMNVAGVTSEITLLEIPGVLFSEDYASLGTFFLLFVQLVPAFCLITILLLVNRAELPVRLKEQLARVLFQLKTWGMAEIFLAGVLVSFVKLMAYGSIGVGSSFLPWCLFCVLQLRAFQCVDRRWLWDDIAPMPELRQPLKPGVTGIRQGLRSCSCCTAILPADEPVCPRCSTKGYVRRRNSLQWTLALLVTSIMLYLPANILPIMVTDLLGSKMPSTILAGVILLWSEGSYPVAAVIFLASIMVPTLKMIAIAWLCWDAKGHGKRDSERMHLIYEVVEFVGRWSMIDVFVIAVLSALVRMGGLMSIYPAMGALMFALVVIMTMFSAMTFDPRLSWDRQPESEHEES
T2 sequence (looked up) 2: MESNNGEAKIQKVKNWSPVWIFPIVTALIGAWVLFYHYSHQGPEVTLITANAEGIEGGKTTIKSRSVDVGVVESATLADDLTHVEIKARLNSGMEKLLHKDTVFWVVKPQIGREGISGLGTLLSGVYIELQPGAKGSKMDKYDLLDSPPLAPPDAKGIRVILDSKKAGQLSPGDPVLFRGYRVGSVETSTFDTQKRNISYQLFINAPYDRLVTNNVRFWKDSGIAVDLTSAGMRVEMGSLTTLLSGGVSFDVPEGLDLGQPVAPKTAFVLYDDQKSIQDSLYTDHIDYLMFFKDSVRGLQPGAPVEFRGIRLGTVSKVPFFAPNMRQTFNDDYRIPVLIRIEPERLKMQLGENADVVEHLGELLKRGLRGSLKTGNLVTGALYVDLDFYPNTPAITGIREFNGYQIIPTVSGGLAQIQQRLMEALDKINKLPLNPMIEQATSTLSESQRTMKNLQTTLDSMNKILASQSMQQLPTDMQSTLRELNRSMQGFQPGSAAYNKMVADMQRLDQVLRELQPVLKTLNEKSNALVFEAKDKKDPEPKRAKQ


Legend:
[1] = biological target: T1, PqiB (residues 1–546) with a C-terminal …; assay: QCM-D; PqiC-Strep in a supported DMPC bilayer on a silicon sensor; PqiAB-DMPC proteoliposomes flowed over, then buffer; 25 °C, 0.1 mL/min; 20 mM Bis-Tris Propane, 150 mM NaCl, pH 8.5; details: both partners purified
[2] = biological target: T2, PqiAB subcomplex (PqiA residues 1–417 …); assay: neutron reflectometry; PqiC in a supported dDMPC bilayer on silicon; PqiAB-DMPC proteoliposomes (0.01 mg/mL PqiAB) incubated 30 minutes, washed; 20 mM BTP, 150 mM NaCl, pH 8.5; 25 °C; isotopic contrast variation; details: both partners purified
[3] = biological target: the molecule itself; assay: crystal structure; PqiC-His in DDM; 3.2 Å; two chains in the asymmetric unit, octameric toroid by the symmetry of the unit cell; interface analysed with PDBePISA

binding result [1] | binding result [2] | Binder | stoichiometry N [3]
binds | binds | PqiC-Strep, E. coli PqiC residues 1–186 with a C-terminal StrepTag II (natural protein, UniProt P0AB10 16-186, looked up, lipidation of Cys16 (the paper: 'a native PqiC construct was used'), signal peptide in the construct; Stood in a supported DMPC bilayer on a silicon surface; also called PqiC (in QCM-D and NR); surface-tethered PqiC octamer) CSSGEINKNYYQLPVVQSGTQSTASQGNRLLWVEQVTVPDYLAGNGVVYQTSDVKYVIANNNLWASPLDQQLRNTLVANLSTQLPGWVVASQPLGSAQDTLNVTVTEFNGRYDGKVIVSGEWLLNHQGQLIKRPFRLEGVQTQDGYDEMVKVLAGVWSQEAASIAQEIKRL | –
– | – | E. coli PqiC (residues 1–187) with a C-terminal hexa-histidine tag (natural protein, UniProt P0AB10 16-187, looked up, N-terminally acylated Cysteine (C16); the construct is 'presumably processed and lipidated in the same manner as the native lipoprotein', signal peptide in the construct; the N-terminal signal peptide is called residues 1–16 in the methods, while the mature lipoprotein is said to begin at the acylated C16; Octamer by the crystal's symmetry (two chains in the asymmetric unit); also called native PqiC; full length PqiC; source: E. coli C43 (DE3), membrane fraction solubilised in DDM, purified (Ni-NTA, SEC)) CSSGEINKNYYQLPVVQSGTQSTASQGNRLLWVEQVTVPDYLAGNGVVYQTSDVKYVIANNNLWASPLDQQLRNTLVANLSTQLPGWVVASQPLGSAQDTLNVTVTEFNGRYDGKVIVSGEWLLNHQGQLIKRPFRLEGVQTQDGYDEMVKVLAGVWSQEAASIAQEIKRLP | 8
